Laboratory results from the supplement of paper PMC10065799, “High-throughput profiling of sequence recognition by tyrosine kinases and SH2 domains using bacterial peptide display” (eLife, 2023).

Columns and labels:
SHP2-C SH2 = assay: SH2 binding enrichment of the phosphorylated peptide, bacterial display (enrichment ratio); higher = better substrate or ligand; peptides without Tyr show the background
Grb2 SH2 = Grb2 SH2 (UniProt P62993); assay: as above
c-Src SH2 = assay: as above
Fer (mouse) = assay: phosphorylation enrichment, bacterial display (enrichment ratio); higher = better substrate or ligand; peptides without Tyr show the background
Fes = Fes (UniProt P07332); assay: as above
c-Src = assay: as above
c-Abl (mouse) = assay: as above
FGFR1 = FGFR1 (UniProt P11362); assay: as above
Hck = Hck (UniProt P08631); assay: as above
EPHB2 = EPHB2 (UniProt P29323); assay: as above
Fyn = Fyn (UniProt P06241); assay: as above
FGFR3 = FGFR3 (UniProt P22607); assay: as above
MERTK = MERTK (UniProt Q12866); assay: as above
AncSZ = assay: as above
Jak2 = Jak2 (UniProt O60674); assay: as above
EPHB1 = EPHB1 (UniProt P54762); assay: as above
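Wherever SH2 binding enrichment of the phosphorylated peptide, bacterial display is given: peptide library displayed on the E. coli surface as eCPX fusions, selected cells deep-sequenced, score is each peptide's frequency after selection divided by its frequency in the input.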
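Wherever phosphorylation enrichment, bacterial display is given: 11-residue human phosphosite peptides and single-mutation variants displayed on the E. coli surface, counted by deep sequencing, each peptide's frequency after selection divided by its frequency in the unselected input library; frequency after pTyr selection over input frequency; kinase dosed for 20-30% of maximal phosphorylation in three min.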

Chain of EPHB1 (P54762 whole entry, looked up, the tested form may be a part): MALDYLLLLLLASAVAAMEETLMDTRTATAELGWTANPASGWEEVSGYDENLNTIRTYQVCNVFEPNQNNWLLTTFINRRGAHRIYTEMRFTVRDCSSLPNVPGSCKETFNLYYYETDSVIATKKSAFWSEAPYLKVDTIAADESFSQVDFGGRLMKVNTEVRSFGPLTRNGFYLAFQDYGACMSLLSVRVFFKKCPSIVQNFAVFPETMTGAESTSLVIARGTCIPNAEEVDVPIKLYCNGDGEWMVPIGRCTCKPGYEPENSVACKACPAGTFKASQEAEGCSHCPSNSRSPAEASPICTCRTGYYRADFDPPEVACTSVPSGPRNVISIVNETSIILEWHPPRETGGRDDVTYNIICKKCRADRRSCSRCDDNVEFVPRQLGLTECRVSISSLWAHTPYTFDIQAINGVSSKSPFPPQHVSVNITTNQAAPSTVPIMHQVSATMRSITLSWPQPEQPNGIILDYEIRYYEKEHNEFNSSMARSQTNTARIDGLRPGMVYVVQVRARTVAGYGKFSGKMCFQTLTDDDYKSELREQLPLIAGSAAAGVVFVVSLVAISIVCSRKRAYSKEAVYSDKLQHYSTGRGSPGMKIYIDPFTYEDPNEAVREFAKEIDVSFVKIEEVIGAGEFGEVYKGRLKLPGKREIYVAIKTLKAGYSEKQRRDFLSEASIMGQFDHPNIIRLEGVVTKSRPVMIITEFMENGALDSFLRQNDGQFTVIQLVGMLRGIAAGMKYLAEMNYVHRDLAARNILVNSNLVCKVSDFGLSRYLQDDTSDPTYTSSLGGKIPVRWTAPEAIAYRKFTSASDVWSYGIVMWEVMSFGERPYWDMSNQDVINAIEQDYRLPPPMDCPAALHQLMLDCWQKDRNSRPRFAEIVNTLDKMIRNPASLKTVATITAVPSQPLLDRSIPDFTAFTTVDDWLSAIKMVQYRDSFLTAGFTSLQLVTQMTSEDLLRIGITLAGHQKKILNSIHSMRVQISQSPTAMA
Chain of FGFR3 (P22607 whole entry, looked up): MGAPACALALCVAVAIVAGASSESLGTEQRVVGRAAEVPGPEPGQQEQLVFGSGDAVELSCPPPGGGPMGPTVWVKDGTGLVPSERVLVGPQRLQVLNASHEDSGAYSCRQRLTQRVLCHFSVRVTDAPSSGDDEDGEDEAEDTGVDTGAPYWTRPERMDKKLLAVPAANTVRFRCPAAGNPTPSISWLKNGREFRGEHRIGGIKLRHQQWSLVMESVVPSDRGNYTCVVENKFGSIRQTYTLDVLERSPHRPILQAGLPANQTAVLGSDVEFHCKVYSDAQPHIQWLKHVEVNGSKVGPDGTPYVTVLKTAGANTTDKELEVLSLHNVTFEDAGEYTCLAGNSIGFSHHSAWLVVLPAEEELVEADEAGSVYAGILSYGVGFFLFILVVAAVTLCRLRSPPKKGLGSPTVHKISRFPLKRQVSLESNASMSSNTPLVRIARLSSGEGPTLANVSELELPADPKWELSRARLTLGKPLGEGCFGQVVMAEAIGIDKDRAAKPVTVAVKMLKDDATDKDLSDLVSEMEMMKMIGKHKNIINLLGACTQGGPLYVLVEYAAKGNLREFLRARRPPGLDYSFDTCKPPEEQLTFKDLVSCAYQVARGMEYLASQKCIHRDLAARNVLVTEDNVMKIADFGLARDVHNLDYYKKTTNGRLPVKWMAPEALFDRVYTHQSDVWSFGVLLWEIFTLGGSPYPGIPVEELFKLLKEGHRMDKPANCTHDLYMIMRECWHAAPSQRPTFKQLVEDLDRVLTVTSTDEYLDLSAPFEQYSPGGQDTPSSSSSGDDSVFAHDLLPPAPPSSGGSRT
Chain of Fes (P07332 whole entry, looked up): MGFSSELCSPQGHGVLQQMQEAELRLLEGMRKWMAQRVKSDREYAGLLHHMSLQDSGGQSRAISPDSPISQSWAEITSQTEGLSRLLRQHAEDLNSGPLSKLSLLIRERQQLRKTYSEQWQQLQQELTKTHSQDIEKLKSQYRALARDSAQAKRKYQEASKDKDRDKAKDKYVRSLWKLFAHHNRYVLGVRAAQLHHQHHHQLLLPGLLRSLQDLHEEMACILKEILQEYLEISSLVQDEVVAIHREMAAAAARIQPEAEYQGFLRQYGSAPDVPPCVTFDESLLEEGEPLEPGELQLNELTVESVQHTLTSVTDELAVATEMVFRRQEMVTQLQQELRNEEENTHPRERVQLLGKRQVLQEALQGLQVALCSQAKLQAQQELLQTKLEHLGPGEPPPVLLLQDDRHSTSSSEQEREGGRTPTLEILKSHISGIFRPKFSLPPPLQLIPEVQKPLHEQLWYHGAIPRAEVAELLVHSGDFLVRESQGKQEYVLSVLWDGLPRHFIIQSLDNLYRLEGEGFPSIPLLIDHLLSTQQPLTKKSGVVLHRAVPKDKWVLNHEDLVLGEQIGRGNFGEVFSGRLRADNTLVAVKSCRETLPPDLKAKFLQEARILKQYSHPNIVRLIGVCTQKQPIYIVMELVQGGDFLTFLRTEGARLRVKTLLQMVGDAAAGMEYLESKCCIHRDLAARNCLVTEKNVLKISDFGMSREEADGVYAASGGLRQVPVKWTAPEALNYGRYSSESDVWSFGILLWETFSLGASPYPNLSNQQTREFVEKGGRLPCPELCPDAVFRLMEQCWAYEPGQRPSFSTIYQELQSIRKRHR
Chain of Fyn (P06241 whole entry, looked up): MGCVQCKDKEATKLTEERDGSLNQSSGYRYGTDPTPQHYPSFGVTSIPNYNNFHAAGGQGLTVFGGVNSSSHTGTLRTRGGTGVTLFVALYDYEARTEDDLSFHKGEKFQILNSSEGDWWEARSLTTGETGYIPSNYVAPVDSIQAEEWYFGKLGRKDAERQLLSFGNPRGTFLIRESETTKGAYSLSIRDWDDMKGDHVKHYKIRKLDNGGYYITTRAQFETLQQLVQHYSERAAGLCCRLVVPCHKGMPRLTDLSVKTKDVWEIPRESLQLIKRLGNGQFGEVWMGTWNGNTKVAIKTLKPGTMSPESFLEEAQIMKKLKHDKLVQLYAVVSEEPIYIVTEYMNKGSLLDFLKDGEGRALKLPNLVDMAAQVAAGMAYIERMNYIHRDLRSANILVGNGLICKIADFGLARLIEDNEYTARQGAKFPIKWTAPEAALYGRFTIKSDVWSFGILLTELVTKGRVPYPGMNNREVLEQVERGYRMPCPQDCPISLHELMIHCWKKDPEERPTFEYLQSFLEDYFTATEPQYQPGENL
Chain of Hck (P08631 whole entry, looked up): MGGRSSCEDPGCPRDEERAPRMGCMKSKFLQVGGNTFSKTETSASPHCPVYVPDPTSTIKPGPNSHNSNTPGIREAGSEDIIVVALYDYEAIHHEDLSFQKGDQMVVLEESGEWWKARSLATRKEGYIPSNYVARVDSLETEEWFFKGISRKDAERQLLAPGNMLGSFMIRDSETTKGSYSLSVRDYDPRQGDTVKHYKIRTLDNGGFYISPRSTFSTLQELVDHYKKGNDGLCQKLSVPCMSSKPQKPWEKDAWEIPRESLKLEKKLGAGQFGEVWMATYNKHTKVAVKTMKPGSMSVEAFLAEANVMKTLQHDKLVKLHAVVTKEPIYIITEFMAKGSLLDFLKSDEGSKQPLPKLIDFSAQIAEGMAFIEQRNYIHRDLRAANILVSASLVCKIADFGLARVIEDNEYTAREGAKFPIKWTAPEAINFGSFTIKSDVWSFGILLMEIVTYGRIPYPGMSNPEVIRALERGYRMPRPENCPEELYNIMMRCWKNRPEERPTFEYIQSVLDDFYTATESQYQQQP
Chain of MERTK (Q12866 whole entry, looked up): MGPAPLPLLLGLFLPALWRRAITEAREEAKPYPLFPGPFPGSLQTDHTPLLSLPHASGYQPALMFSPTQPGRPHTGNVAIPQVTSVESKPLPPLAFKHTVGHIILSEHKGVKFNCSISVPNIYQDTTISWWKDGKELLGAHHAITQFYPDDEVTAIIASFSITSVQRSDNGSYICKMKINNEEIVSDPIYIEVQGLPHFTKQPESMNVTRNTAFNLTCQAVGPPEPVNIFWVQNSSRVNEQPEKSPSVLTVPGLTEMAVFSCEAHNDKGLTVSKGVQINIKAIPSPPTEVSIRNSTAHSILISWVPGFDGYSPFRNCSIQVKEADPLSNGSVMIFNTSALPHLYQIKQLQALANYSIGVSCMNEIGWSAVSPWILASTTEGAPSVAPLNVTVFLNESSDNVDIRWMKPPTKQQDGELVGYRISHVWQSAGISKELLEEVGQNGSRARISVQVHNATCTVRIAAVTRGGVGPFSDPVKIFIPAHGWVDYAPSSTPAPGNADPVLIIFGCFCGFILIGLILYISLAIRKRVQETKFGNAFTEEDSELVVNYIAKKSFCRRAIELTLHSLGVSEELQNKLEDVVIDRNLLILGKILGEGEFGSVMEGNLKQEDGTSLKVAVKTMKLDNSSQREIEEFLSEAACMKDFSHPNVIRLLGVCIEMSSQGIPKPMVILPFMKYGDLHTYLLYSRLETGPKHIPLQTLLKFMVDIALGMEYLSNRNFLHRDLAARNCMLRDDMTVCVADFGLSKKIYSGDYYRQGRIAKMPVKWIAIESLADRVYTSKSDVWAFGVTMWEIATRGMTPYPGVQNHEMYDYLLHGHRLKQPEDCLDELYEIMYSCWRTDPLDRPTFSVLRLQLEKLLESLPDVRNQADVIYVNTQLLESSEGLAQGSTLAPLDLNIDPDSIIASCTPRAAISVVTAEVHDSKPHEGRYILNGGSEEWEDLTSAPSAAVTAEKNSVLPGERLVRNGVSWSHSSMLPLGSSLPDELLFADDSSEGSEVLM

Sequence	SH2 binding enrichment (SHP2-C SH2)	SH2 binding enrichment (Grb2 SH2)	SH2 binding enrichment (c-Src SH2)	phosphorylation enrichment (Fer (mouse))	phosphorylation enrichment (Fes)	phosphorylation enrichment (c-Src)	phosphorylation enrichment (c-Abl (mouse))	phosphorylation enrichment (FGFR1)	phosphorylation enrichment (Hck)	phosphorylation enrichment (EPHB2)	phosphorylation enrichment (Fyn)	phosphorylation enrichment (FGFR3)	phosphorylation enrichment (MERTK)	phosphorylation enrichment (AncSZ)	phosphorylation enrichment (Jak2)	phosphorylation enrichment (EPHB1)
PYADPYYDYEI [ZC3H18_Y371]	1.03	0.795	1.94	6.03	2.33	8.11	1.16	20.2	3.13	4.58	6.02	19.8	4.93	4.79	2.75	5.6
PYSNSYENSLI [EPOR_Y489_P488S]	0.735	18.4	4.51	0.754	1.41	0.689	1.06	1.04	0.887	0.433	0.699	0.854	0.552	1.32	0.903	0.713
QEALEYFMKQM [PIK3CA_Y1038]	0.698	0.667	0.636	0.584	1.22	0.675	1.19	0.627	0.39	0.624	0.696	0.704	0.584	1.36	1.49	0.644
QEGPEYWDQQT [HLA-A_Y83_E87Q]	0.612	0.664	0.421	0.884	2.21	0.937	1.78	1.01	0.58	0.967	0.741	1.21	0.649	2.09	2.33	1.31
QEIATYRRLLE [KRT14_Y415]	0.58	0.862	0.413	0.411	0.936	0.503	0.563	0.509	0.453	0.53	0.562	0.68	0.464	0.689	0.693	0.418
QEKKGYFEDRR [GLUL_Y336]	0.761	1.02	0.952	0.821	1	0.469	1.2	0.682	0.792	0.577	0.906	0.733	0.605	0.907	0.628	0.618
QLGLQYSQGLV [EIF2B4_Y214_R209Q]	0.721	0.644	0.375	0.527	0.835	0.629	0.861	0.478	0.598	0.479	0.447	0.776	0.731	0.995	1.75	0.427
QMVGMYASSFM [AVPR2_Y124_YF]	0.637	0.626	0.548	0.904	1.07	1.6	1.48	0.73	1.34	0.914	1.59	0.782	2.31	0.981	1.21	0.922
QPSALYEDRFL [ASS1_Y83_S79P_YF]	0.684	0.783	0.633	10.6	1.4	1.41	0.881	0.816	6.97	2.01	1.77	1.12	1.11	1.4	0.968	3.04
QPSALYEDRYL [ASS1_Y83_S79P]	0.461	0.918	0.984	6.74	1.06	0.942	0.681	0.529	3.92	1.16	0.946	0.625	0.78	0.93	1.04	1.67
QQMGTYGVRAA [ICAM2_Y260_R256Q]	0.373	1.07	0.37	0.339	0.579	2.48	0.442	0.392	3.77	0.414	2.06	0.417	0.658	0.33	0.313	0.281
QRIHDYFEHRF [HCN4_Y554_YF]	0.46	0.847	0.957	0.872	0.656	0.496	0.625	5.67	0.527	0.843	0.479	3.23	0.447	1.06	0.575	0.614
QSPQLYKQLCI [DARS1_Y253_M256L]	0.625	0.585	0.432	0.483	1.12	0.53	0.449	0.653	0.706	0.957	0.719	1.05	0.432	1.02	0.875	0.511
QSSALYEDHFL [ASS1_Y83_R86H_YF]	1.13	0.809	0.48	17.9	1.47	2.12	1.04	0.654	1.57	4.17	1.36	0.46	2.51	1.07	0.898	5.92

Further lines, with some results ahead:

SH2 binding enrichment (SHP2-C SH2)	SH2 binding enrichment (Grb2 SH2)	SH2 binding enrichment (c-Src SH2)	Sequence	phosphorylation enrichment (Fer (mouse))	phosphorylation enrichment (Fes)	phosphorylation enrichment (c-Src)	phosphorylation enrichment (c-Abl (mouse))	phosphorylation enrichment (FGFR1)	phosphorylation enrichment (Hck)	phosphorylation enrichment (EPHB2)	phosphorylation enrichment (Fyn)	phosphorylation enrichment (FGFR3)	phosphorylation enrichment (MERTK)	phosphorylation enrichment (AncSZ)	phosphorylation enrichment (Jak2)	phosphorylation enrichment (EPHB1)
0.697	0.904	0.386	PVQAAYPKVVA [HBB_Y131_Q132P]	0.261	0.804	1	0.501	0.322	0.335	0.542	0.42	0.503	0.504	0.706	0.828	0.902
0.992	0.808	1.47	PYGQWYESHYA [RPS8_Y113_R110G]	20.6	2.16	6.96	1.06	2.7	5.96	15.1	6.11	2.15	9.28	1.55	1.09	14.5
0.61	0.876	0.644	QCQLKYSETPF [SIX6OS1_Y129_Y125C]	0.798	1.32	0.717	0.933	0.68	0.749	0.722	0.558	0.842	0.82	1.24	1.01	0.634
0.465	0.672	0.594	QCTSAHPLQPE [NANS_Y188_Y188H]	0.726	1.73	0.461	1.09	0.966	0.771	0.923	0.601	0.961	0.449	1.25	1.28	1.07
0.463	0.64	0.545	QDEHGYISWCF [HSPB1_Y133_R136W]	1.05	2.34	0.865	1.55	1.27	0.944	0.873	0.559	1.8	0.8	2.17	2.61	1
0.593	0.855	0.441	QEIATYRRLPE [KRT16_Y417_L421P]	0.406	0.757	0.38	0.683	0.507	0.553	0.592	0.525	0.737	0.489	0.762	0.73	0.77
0.527	0.694	0.643	QFNMQYSSSAA [ERBB2IP_Y981_I979M_YF]	0.492	1.18	0.346	0.449	0.558	0.47	0.529	0.388	0.674	0.492	0.937	0.581	0.592
0.728	0.667	1.11	QISSNYDDAMQ [ZNF281_Y531]	0.533	0.978	0.57	0.569	0.434	0.499	0.771	0.348	0.703	0.845	0.962	0.939	0.665
0.587	1.03	0.521	QITQVCGFFDE [PPP2CA_Y127_Y127C_YF]	0.612	1.95	0.599	1.65	0.5	0.645	0.871	0.434	1.24	0.812	1.56	1.92	0.645
0.488	0.952	0.439	QKDTFYGLRSL [IGSF10_Y126]	0.474	1.12	0.807	0.837	0.562	0.598	0.927	0.498	0.562	0.552	0.73	1	0.488
1.36	1.56	1.09	QKPLGYFRVNL [GALE_Y104_D103G_YF]	0.399	1.12	0.409	0.67	0.839	0.648	0.635	0.657	0.722	0.577	1.2	1.16	0.518
0.747	0.985	0.637	QLHEHYKIHKE [NSMAF_Y626]	0.563	0.95	0.777	0.623	0.311	0.526	0.597	0.697	0.772	0.878	0.748	0.641	0.455
1.54	1.29	1.07	QLYGPYLRIHA [BSCL2_Y213_A212P]	0.596	1.12	2.52	0.612	0.344	2.83	2.03	2.04	0.73	0.538	0.87	0.974	0.897
0.607	0.642	0.581	QMIETYFDFRV [NSMF_Y506_L511V]	0.679	1.39	4.53	0.887	5.84	2.77	1.46	3.37	4.49	1.09	1.77	2.78	2.29
0.977	1.02	0.573	QPSPSYDSSGG [TCF12_Y70_R74G]	0.553	0.731	0.478	0.477	0.611	0.604	0.778	0.667	0.623	0.452	0.668	0.579	0.44
1.22	1.16	1.31	QRIHNYFEHRF [HCN4_Y554_D553N_YF]	0.343	0.692	0.493	0.34	0.719	0.409	0.443	0.441	0.374	0.567	0.647	0.34	0.543
0.677	0.951	0.662	QRRLVYYERGA [RYR1_Y245_G248R]	0.226	0.537	0.426	0.368	0.499	0.53	0.345	0.533	0.48	0.319	0.427	0.391	0.448
1.52	1.66	1.03	QRVLLYVQRET [GRHL3_Y518_R520Q]	0.885	1.89	0.57	1.36	0.855	0.509	0.763	0.673	1.13	0.452	1.82	1.89	1.04
1.26	1.13	0.719	QSSEGYDLGDR [KIAA1210_Y564_G565D]	0.607	1.43	0.688	1.12	0.416	0.546	0.853	0.948	0.714	0.501	1.41	1.09	0.644
